Measured values reported in US20190185581A1 (University of California, published 2019).

Tests used:
[1] = target: T1, catalytic domain of MMP-14 (cdMMP-14) (human, UniProt P50281 114-287, limits assumed, biotinylated (Sulfo-NHS-LC-Biotin) where immobilised via streptavidin); experiment: ELISA, Fab titrated on immobilised MMP-14 catalytic domain, anti-Fab-HRP
T1 construct: also called matrix metalloproteinase-14 catalytic domain; wild-type MMP-14
Description: Bound Fabs were detected using the anti-Fab-HRP conjugate. The half-maximal effective concentration (EC₅₀) was calculated from a four-parametric logistic curve-fitting analysis.

[2] = target: T1, catalytic domain of MMP-14 (cdMMP-14); experiment: cell-based or functional assay
[3] = target: T1, catalytic domain of MMP-14 (cdMMP-14); experiment: ELISA, Fab titrated on immobilised biotin-cdMMP-14, anti-Fab-HRP
[4] = target: T1, catalytic domain of MMP-14 (cdMMP-14); experiment: cell-based or functional assay; remark: listed apart in the source
Fab 3A2 = target: T2, Fab 3A2; experiment: competitive ELISA: 10 nM Fab 3A2 pre-incubated with soluble MMP-14 (WT or mutant), then captured on immobilised wild-type MMP-14; anti-Fab-HRP
T2 construct: also called R3C9; not shown: His tag at the C-terminus of the heavy chain

Row | Binder | EC50 [1] | IC50 by FRET Assay [2] | EC50 [3] | Inhibition potency (FRET IC50) [4] | IC50 (read off the curve) (Fab 3A2) | binding result (Fab 3A2)
1 | Fab 32D1 (Fab, V domains shown, not shown: His tag at the C-terminus of the heavy chain) VH: EVQLVESGGGLVQPGGSLRLSCAASGFNLYYSYMHWVRQAPGKGLEWVASISPYSGYTYYADSVKGRFTISADTSKNTAYLQMNSLRAEDTAVYYCARMSLHRNFNQQGRSRLLGRMPRTYGMDYWGQGTLVTVSS VL: DIQMTQSPSSLSASVGDRVTITCRASQSVSSAVAWYQQKPGKAPKLLIYSASSLYSGVPSRFSGSRSGTDFTLTISSLQPEDFATYYCQQYYSLITFGQGTKVEIKR | 350 nM | 4200 nM |  |  |  | 
2 | Fab 33D4 (Fab, V domains shown, also called R2C15; not shown: His tag at the C-terminus of the heavy chain) VH: EVQLVESGGGLVQPGGSLRLSCAASGFNIYYSSMHWVRQAPGKGLEWVASISPYSGSTYYADSVKGRFTISADTSKNTAYLQMNSLRAEDTAVYYCARSVHMKLSNKILSGWSWNNSFYAMDYWGQGTLVTVSS VL: DIQMTQSPSSLSASVGDRVTITCRASQSVSSAVAWYQQKPGKAPKLLIYSASSLYSGVPSRFSGSRSGTDFTLTISSLQPEDFATYYCQQSSYSLITFGQGTKVEIKR | 460 nM | 3900 nM | 460 nM | 3900 nM |  | 
3 | MMP-14 catalytic domain mutant F198A (enzyme) not shown |  |  |  |  | ~100 nM | 
4 | MMP-14 catalytic domain mutant N231A (enzyme) not shown |  |  |  |  |  | binds
5 | MMP-14 catalytic domain mutant F204A (enzyme) not shown |  |  |  |  |  | binds

Second part, the binder after the results:

Row | EC50 [1] | IC50 by FRET Assay [2] | EC50 [3] | Inhibition potency (FRET IC50) [4] | IC50 (read off the curve) (Fab 3A2) | binding result (Fab 3A2) | Binder
6 | 220 nM | 4600 nM | 220 nM | 4600 nM |  |  | Fab 33C4 (Fab, V domains shown, also called R2C3; not shown: His tag at the C-terminus of the heavy chain) VH: EVQLVESGGGLVQPGGSLRLSCAASGFNLYSSSMHWVRQAPGKGLEWVASIYPYYGYTYYADSVKGRFTISADTSKNTAYLQMNSLRAEDTAVYYCARPTTSRVNKKLFRVSVLHPGSYGMDYWGQGTLVTVSS VL: DIQMTQSPSSLSASVGDRVTITCRASQSVSSAVAWYQQKPGKAPKLLIYSASSLYSGVPSRFSGSRSGTDFTLTISSLQPEDFATYYCQQASYLITFGQGTKVEIKR
7 | 51 nM | 6000 nM |  |  |  |  | Fab 3E9 (Fab, V domains shown, not shown: His tag at the C-terminus of the heavy chain) VH: EVQLVESGGGLVQPGGSLRLSCAASGFNLYYSSMHWVRQAPGKGLEWVASIYPSYGSTYYADSVKGRFTISADTSKNTAYLQMNSLRAEDTAVYYCARNGRYPGFLKRAHKRLLNFKAYVMDYWGQGTLVTVSS VL: DIQMTQSPSSLSASVGDRVTITCRASQSVSSAVAWYQQKPGKAPKLLIYSASSLYSGVPSRFSGSRSGTDFTLTISSLQPEDFATYYCQQGSWYLITFGQGTKVEIKR
8 | 150 nM | 8000 nM |  |  |  |  | Fab 32C2 (Fab, V domains shown, not shown: His tag at the C-terminus of the heavy chain) VH: EVQLVESGGGLVQPGGSLRLSCAASGFNLYYYSMHWVRQAPGKGLEWVAYISPYSSSTYYADSVKGRFTISADTSKNTAYLQMNSLRAEDTAVYYCARSQHAKKSTIIRMLEHQSRSGMQYVMDYWGQGTLVTVSS VL: DIQMTQSPSSLSASVGDRVTITCRASQSVSSAVAWYQQKPGKAPKLLIYSASSLYSGVPSRFSGSRSGTDFTLTISSLQPEDFATYYCQQSSYSLITFGQGTKVEIKR
9 | 34 nM | 970 nM | 34 nM | 970 nM |  |  | Fab 3F3 (Fab, V domains shown, also called R2C13; not shown: His tag at the C-terminus of the heavy chain) VH: EVQLVESGGGLVQPGGSLRLSCAASGFNIYSSSMHWVRQAPGKGLEWVAYIYPYSGYTYYADSVKGRFTISADTSKNTAYLQMNSLRAEDTAVYYCARLYNGWLMVEGIGSAREGPTWYAMDYWGQGTLVTVSS VL: DIQMTQSPSSLSASVGDRVTITCRASQSVSSAVAWYQQKPGKAPKLLIYSASSLYSGVPSRFSGSRSGTDFTLTISSLQPEDFATYYCQQGGVYAAHPFTFGQGTKVEIKR
10 | 160 nM | 390 nM |  |  |  |  | Fab 3G9 (Fab, V domains shown, not shown: His tag at the C-terminus of the heavy chain) VH: EVQLVESGGGLVQPGGSLRLSCAASGFNIYYSSIHWVRQAPGKGLEWVASIYSYSGYTYYADSVKGRFTISADTSKNTAYLQMNSLRAEDTAVYYCARATNEKFRRKSLQVRLLMRSWLAYAMDYWGQGTLVTVSS VL: DIQMTQSPSSLSASVGDRVTITCRASQSVSSAVAWYQQKPGKAPKLLIYSASSLYSGVPSRFSGSRSGTDFTLTISSLQPEDFATYYCQQASYAASALITFGQGTKVEIKR
